The sequences below were run on Escherichia coli TOP10 (assay: shrunken log2 fold change of peptide-encoding DNA abundance (4.5 h post-induction vs induction); higher = less antimicrobial activity (less host growth inhibition)). Conditions: time post-induction: 4.5 h; library: site-saturation at positions 5, 18, 19, 20.
RRIRGRPPRLPRPRPRPIWEPRP was tested, and the “shrunken log2 fold change” value was 0.019.
With RRIRCRPPRLPRPRPRPYMYPRP the “shrunken log2 fold change” value was -0.912.
In the case of RRIRLRPPRLPRPRPRPYLVPRP, the “shrunken log2 fold change” value is reported as -1.06.
In the case of RRIRHRPPRLPRPRPRPIYHPRP, the “shrunken log2 fold change” value is reported as -0.0782.
In the case of RRIRVRPPRLPRPRPRPDKMPRP, the “shrunken log2 fold change” value is reported as -0.0822.
With RRIRDRPPRLPRPRPRPVCRPRP the “shrunken log2 fold change” value was 0.251.
In the case of RRIRQRPPRLPRPRPRPYIPPRP, the “shrunken log2 fold change” value is reported as -0.619.
With RRIRRRPPRLPRPRPRPYFGPRP the “shrunken log2 fold change” value was -0.163.
For RRIRCRPPRLPRPRPRPHIEPRP, the “shrunken log2 fold change” value was -0.856.
RRIRKRPPRLPRPRPRPWLMPRP was tested, and the “shrunken log2 fold change” value was 0.0931.
With RRIRIRPPRLPRPRPRPEHLPRP the “shrunken log2 fold change” value was -0.105.
In the case of RRIRDRPPRLPRPRPRPHNTPRP, the “shrunken log2 fold change” value is reported as -0.531.
RRIRGRPPRLPRPRPRPTTDPRP was tested, and the “shrunken log2 fold change” value was 0.918.
RRIRPRPPRLPRPRPRPACLPRP was tested, and the “shrunken log2 fold change” value was 0.0505.
In the case of RRIRFRPPRLPRPRPRPWNSPRP, the “shrunken log2 fold change” value is reported as -0.976.
With RRIRARPPRLPRPRPRPCGQPRP the “shrunken log2 fold change” value was 0.25.
With RRIRRRPPRLPRPRPRPFPFPRP the “shrunken log2 fold change” value was -0.0334.
With RRIRHRPPRLPRPRPRPAPNPRP the “shrunken log2 fold change” value was 0.497.
RRIRVRPPRLPRPRPRPYFWPRP was tested, and the “shrunken log2 fold change” value was -0.395.
In the case of RRIRPRPPRLPRPRPRPEEYPRP, the “shrunken log2 fold change” value is reported as 0.00398.
In the case of RRIRPRPPRLPRPRPRPVAMPRP, the “shrunken log2 fold change” value is reported as 0.0478.
In the case of RRIRERPPRLPRPRPRPWHTPRP, the “shrunken log2 fold change” value is reported as -0.16.
For RRIRRRPPRLPRPRPRPGIYPRP, the “shrunken log2 fold change” value was 0.0548.
For RRIRKRPPRLPRPRPRPKDYPRP, the “shrunken log2 fold change” value was -0.0531.
RRIRKRPPRLPRPRPRPISPPRP was tested, and the “shrunken log2 fold change” value was 0.305.
For RRIRPRPPRLPRPRPRPQNWPRP, the “shrunken log2 fold change” value was 0.0202.
RRIRARPPRLPRPRPRPHWLPRP was tested, and the “shrunken log2 fold change” value was 0.339.
RRIRDRPPRLPRPRPRPFSLPRP was tested, and the “shrunken log2 fold change” value was -0.176.
With RRIRKRPPRLPRPRPRPLIEPRP the “shrunken log2 fold change” value was 0.105.
For RRIRYRPPRLPRPRPRPMYTPRP, the “shrunken log2 fold change” value was -0.597.
For RRIRARPPRLPRPRPRPKFAPRP, the “shrunken log2 fold change” value was 0.306.
With RRIRQRPPRLPRPRPRPHKWPRP the “shrunken log2 fold change” value was -0.2.
For RRIRSRPPRLPRPRPRPCEQPRP, the “shrunken log2 fold change” value was 0.000312.
For RRIRSRPPRLPRPRPRPWDFPRP, the “shrunken log2 fold change” value was -0.224.
In the case of RRIRARPPRLPRPRPRPNIGPRP, the “shrunken log2 fold change” value is reported as -0.0734.
For RRIRRRPPRLPRPRPRPESFPRP, the “shrunken log2 fold change” value was 0.0965.
RRIRMRPPRLPRPRPRPHVLPRP was tested, and the “shrunken log2 fold change” value was -0.00145.
With RRIRMRPPRLPRPRPRPVRQPRP the “shrunken log2 fold change” value was 0.332.
RRIRGRPPRLPRPRPRPGPFPRP was tested, and the “shrunken log2 fold change” value was 0.218.
In the case of RRIRKRPPRLPRPRPRPIMQPRP, the “shrunken log2 fold change” value is reported as -0.0251.
RRIRSRPPRLPRPRPRPTMDPRP was tested, and the “shrunken log2 fold change” value was -0.262.
RRIRKRPPRLPRPRPRPENEPRP was tested, and the “shrunken log2 fold change” value was 0.918.
In the case of RRIRYRPPRLPRPRPRPWGKPRP, the “shrunken log2 fold change” value is reported as -0.461.
In the case of RRIRNRPPRLPRPRPRPWMGPRP, the “shrunken log2 fold change” value is reported as -0.558.
With RRIRPRPPRLPRPRPRPGINPRP the “shrunken log2 fold change” value was -0.178.
RRIRLRPPRLPRPRPRPRHEPRP was tested, and the “shrunken log2 fold change” value was 0.055.
For RRIRNRPPRLPRPRPRPTPMPRP, the “shrunken log2 fold change” value was 0.0289.
For RRIRARPPRLPRPRPRPFRHPRP, the “shrunken log2 fold change” value was -0.0722.
With RRIRWRPPRLPRPRPRPKFIPRP the “shrunken log2 fold change” value was -0.17.
RRIRHRPPRLPRPRPRPRVWPRP was tested, and the “shrunken log2 fold change” value was 0.534.
With RRIRPRPPRLPRPRPRPPPSPRP the “shrunken log2 fold change” value was 1.12.
With RRIRSRPPRLPRPRPRPSAWPRP the “shrunken log2 fold change” value was 0.555.
RRIRLRPPRLPRPRPRPQVDPRP was tested, and the “shrunken log2 fold change” value was -0.136.
RRIRQRPPRLPRPRPRPLDHPRP was tested, and the “shrunken log2 fold change” value was -0.198.
In the case of RRIRARPPRLPRPRPRPSQSPRP, the “shrunken log2 fold change” value is reported as 0.0538.
For RRIRVRPPRLPRPRPRPVRQPRP, the “shrunken log2 fold change” value was -0.0557.
RRIRDRPPRLPRPRPRPFKRPRP was tested, and the “shrunken log2 fold change” value was -0.00875.
In the case of RRIRFRPPRLPRPRPRPNTHPRP, the “shrunken log2 fold change” value is reported as -0.579.
In the case of RRIRMRPPRLPRPRPRPLDYPRP, the “shrunken log2 fold change” value is reported as -0.0259.
With RRIRYRPPRLPRPRPRPHHVPRP the “shrunken log2 fold change” value was -0.00992.

— the supplement of paper PMC9112550, “Optimization of the antimicrobial peptide Bac7 by deep mutational scanning” (BMC Biology, 2022)
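Note: peptides expressed intracellularly from a pBAD plasmid library in pooled LB shake-flask culture, induced with 0.3% L-arabinose, DNA abundance read by NGS, three biological replicates, DESeq2 with apeglm shrinkage.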
